Reference: patent publication US7408028B2, “Peptides, antibodies thereto, and their use in treatment of central nervous system, damage” (Sinapore General Hospital Pte Ltd., priority 2002, dated 2008)

Assays:
TNR-EGFL [1] = target: T1, TNR-EGFL (Homo sapiens, UniProt Q92752); test: Phage display panning (Ph.D-7 library), clones identified by ELISA and sequencing; type: binding; settings: target TNR-EGFL, 3-4 rounds of affinity selection
T1 construct: GST; made in house
T1 sequence (Q92752 125-329): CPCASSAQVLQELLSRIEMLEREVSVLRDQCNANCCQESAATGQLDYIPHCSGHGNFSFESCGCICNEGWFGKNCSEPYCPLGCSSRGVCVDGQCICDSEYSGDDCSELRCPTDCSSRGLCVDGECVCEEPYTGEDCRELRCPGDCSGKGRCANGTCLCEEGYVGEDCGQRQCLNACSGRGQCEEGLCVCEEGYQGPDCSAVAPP
Experimental: (§1) Purification of TN-R, MAG and Nogo from adult mouse brains was performed by immumoaffinity chromatography as previously described (Pesheva, P et al, 1989). Generation and purification of the recombinant domains of TN-R, MAG, Nogo as fusion proteins with GST were performed as previously described (Xiao Z C et al, 1996). All these proteins were used as phage binding targets for rapid screening, using the Ph. D-7TM phage display peptide library kit (New England Biolabs, Ltd) according to the manufacturer's instructions.
(§2) Briefly, a library of phages, displaying different peptide sequences, was exposed to a plate coated with the target protein. Unbound phage was washed away and specifically bound phage was eluted by lowering pH. The eluted pool of phage was amplified, and the process was repeated 3-4 times.
(§3) The peptide-encoding sequences of the specific phage clones were determined by automated sequencing. The sequences of peptides which bound specifically to the targeted proteins were obtained.
(§4) Exemplary 7-mer peptide-endcoding sequences are shown below. “n” refers to the number of isolated phages displaying a peptide having the sequence shown (though there was of course some variability in the encoding nucleic acid sequences, owing to the degeneracy of the genetic code). “SIN” is an abbreviation for “SEQ ID NO.” and refers to the peptide sequence. The SEQ ID NOS of the nucleic acid sequences from the top to the bottom of the table are as follows: SEQ ID NO: 28, SEQ ID NO: 29, SEQ ID NO: 30, SEQ ID NO: 31, SEQ ID NO: 32, SEQ ID NO: 29, SEQ ID NO: 33. SEQ ID NO: 28, SEQ ID NO: 34, SEQ ID NO: 35.

MAG [2] = target: T2, MAG (Mus musculus, UniProt P20917); test: as above; type: binding; settings: target MAG, 3-4 rounds of affinity selection
T2 construct: from tissue; host or cells: adult mouse brain
T2 sequence (P20917 20-627): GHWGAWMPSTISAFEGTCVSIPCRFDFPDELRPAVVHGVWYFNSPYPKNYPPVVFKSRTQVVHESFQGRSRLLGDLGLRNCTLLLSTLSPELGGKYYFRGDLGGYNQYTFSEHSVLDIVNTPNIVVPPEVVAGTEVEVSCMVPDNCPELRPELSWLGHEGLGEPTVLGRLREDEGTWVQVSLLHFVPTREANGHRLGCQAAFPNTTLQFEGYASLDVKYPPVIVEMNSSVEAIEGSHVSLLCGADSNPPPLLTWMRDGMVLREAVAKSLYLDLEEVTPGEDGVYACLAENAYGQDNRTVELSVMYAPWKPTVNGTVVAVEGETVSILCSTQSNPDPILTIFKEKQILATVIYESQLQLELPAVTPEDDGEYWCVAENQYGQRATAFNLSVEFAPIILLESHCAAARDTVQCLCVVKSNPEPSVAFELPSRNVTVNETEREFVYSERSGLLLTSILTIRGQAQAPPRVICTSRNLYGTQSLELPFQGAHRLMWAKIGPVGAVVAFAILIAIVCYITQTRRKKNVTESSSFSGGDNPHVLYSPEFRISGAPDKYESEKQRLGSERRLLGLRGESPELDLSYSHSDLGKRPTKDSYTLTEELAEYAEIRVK
Experimental: as §1, §2, §3, §4

MAG [3] = target: T2, MAG; test: Phage blocking of the inhibitory effect on NG108 cell adhesion; type: cell-based; settings: peptide displayed on phage, 24 hours
Experimental: (§5) NG108 cells were plated on poly-DL-ornithine-treated tissue culture petri dish as single-cell suspensions. Specific phages that display the Nogo66-, MAG- and TNR-binding peptides identified above were added to the cell culture. Cells were maintained for 24 hours before fixation and staining with toluidine blue. Cell adhesion was determined as previously described.

Nogo-66 [4] = target: T3, Nogo-66 (Homo sapiens, UniProt Q9NQC3); test: as above; type: cell-based; design: made in house; settings: peptide displayed on phage, 24 hours
T3 sequence (Q9NQC3 1055-1120): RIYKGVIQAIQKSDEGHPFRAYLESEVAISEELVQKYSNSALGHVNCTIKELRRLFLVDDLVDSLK
Experimental: as §5

Nogo-66 [5] = target: T3, Nogo-66; test: Phage display panning (Ph.D-7 library), clones identified by ELISA and sequencing; type: binding; design: GST; made in house; settings: target Nogo-66, 3-4 rounds of affinity selection
Experimental: as §1, §2, §3, §4

TNR-EGFL [6] = test: Phage blocking of the inhibitory effect on NG108 cell adhesion; type: cell-based; settings: peptide displayed on phage, 24 hours
Experimental: as §5

[7] = system: postnatal day 1 hippocampal neurons; settings: coated protein; cited from earlier work
NG108 cells [8] = test: Repulsion assay on coated Nogo domain substrates; type: cell-based, mouse neuroblastoma—rat glioma hybrid cells; settings: GST as control
Experimental: NG108 cells (mouse neuroblastoma—rat glioma hybrid cells, commercially available from the American Tissue Type Culture Collection, Manassas, Va., USA, under accession number ATCC HB-12317) were plated on coated substrates using Nogol-25, Nogol-50, Nogol-66 and GST-Nogo-66 as well as GST as control. Generation and purification of the recombinant domains of Nogo, either alone or as fusion proteins with GST, were performed as previously described (Xiao Z C et al, 1996).

NG108 cells [9] = test: Neurite outgrowth assay on coated Nogo domain substrates; type: cell-based, mouse neuroblastoma—rat glioma hybrid cells; settings: coated substrate, GST as control
Experimental: NG108 cells were plated on coated substrates using Nogol-25, Nogol-50, Nogol-66, and GST-Nogo-66 as well as GST as control.

NG108 cells [10] = test: Neuronal cell adhesion to protein spots on nitrocellulose-coated dishes; type: cell-based, mouse neuroblastoma—rat glioma hybrid cells; settings: spots 5 μM GST-Nogo66, 100 μM Nogo66, Nogol-50, Nogol-25; 12 hours; p<0.05
Experimental: Tissue culture petri dishes (Becton Dickinson) with a diameter of 3.5 cm were coated with methanol-solubilized nitrocellulose according to Lagenaur and Lemmon (1987) and air-dried under a sterile hood. Then the petri dishes were incubated with PBS containing 5 μg/ml poly-DL-ornithine for 2 hours at 37° C. Subsequently, the dishes were washed three times with PBS and dried under a sterile hood.
Protein spots (1.5 μl of 5 μM GST, 5 μM GST-Nogo66, 100 μM Nogo66, 100 μM Nogol-50 or 100 μM Nogol-25) were applied to the nitrocellulose-coated surfaces of the petri dishes and incubated for 2 hours at 37° C. in a humidified atmosphere. Subsequently, the spots were washed three times with PBS. The dishes were then flooded with PBS containing 2% heat-inactivated fatty acid-free BSA (Sigma) and incubated overnight to block residual non-specific protein binding sites.
Then, the dishes were washed with PBS and NG108 cells were plated in 2 ml of Dulbecco's modified Eagle's medium containing 10% fetal bovine serum at a density of 2.5×10^5 cells/ml and incubated at 37° C. in a humidified atmosphere. After 12 hours, the dishes were gently washed three times with PBS and the cells fixed by flooding with PBS containing 2.5% glutaraldehyde. After fixation, cultures were stained with 0.5% toluidine blue (Sigma) in 2.5% sodium carbonate. […]
Cells adhering to the various spots were photographed and counted. […]

## HHMPHDK (From a phage library that displays random 7-mers)
TNR-EGFL [1]
  n, number of isolated phages displaying the peptide: HHMPHDK (n = 1)
TNR-EGFL [1]; listed as SEQ ID NO. 5
  n, number of isolated phages displaying the peptide: 1

## QLPLMPR (From a phage library that displays random 7-mers)
MAG [2]
  n, number of isolated phages displaying the peptide: QLPLMPR (n = 5)
MAG [2]; listed as SEQ ID NO. 7
  n, number of isolated phages displaying the peptide: 5

## HSIPDNI (From a phage library that displays random 7-mers)
TNR-EGFL [1]
  n, number of isolated phages displaying the peptide: HSIPDNI (n = 3)
TNR-EGFL [1]; listed as SEQ ID NO. 4
  n, number of isolated phages displaying the peptide: 3

## YLTQPQS (From a phage library that displays random 7-mers)
MAG [2]
  n, number of isolated phages displaying the peptide: YLTQPQS (n = 19)
MAG [2]; listed as SEQ ID NO. 1
  n, number of isolated phages displaying the peptide: 19
MAG [3]
  Block of the inhibitory effect of MAG on NG108 cell binding: able to block
MAG [3]; listed as SEQ ID NO. 1
  Block of the inhibitory effect of MAG on NG108 cell binding: block
Nogo-66 [4]
  Block of the inhibitory effect of Nogo-66 on NG108 cell binding: able to block
Nogo-66 [4]; listed as SEQ ID NO. 1
  Block of the inhibitory effect of Nogo-66 on NG108 cell binding: block
Nogo-66 [5]
  n, number of isolated phages displaying the peptide: YLTQPQS (n = 43)
Nogo-66 [5]; listed as SEQ ID NO. 1
  n, number of isolated phages displaying the peptide: 43

## GSLPHSL (From a phage library that displays random 7-mers)
TNR-EGFL [1]
  n, number of isolated phages displaying the peptide: GSLPHSL (n = 1)
Nogo-66 [5]
  n, number of isolated phages displaying the peptide: GSLPHSL (n = 8)
Nogo-66 [5]; listed as SEQ ID NO. 2
  n, number of isolated phages displaying the peptide: 8

## TQLFPPQ (From a phage library that displays random 7-mers)
MAG [2]
  n, number of isolated phages displaying the peptide: TQLFPPQ (n = 7)
TNR-EGFL [1]
  n, number of isolated phages displaying the peptide: TQLFPPQ (n = 18)
TNR-EGFL [1]; listed as SEQ ID NO. 3
  n, number of isolated phages displaying the peptide: 18
TNR-EGFL [6]
  Block of the inhibitory effect of TNR-EGFL on NG108 cell binding: able to block
TNR-EGFL [6]; listed as SEQ ID NO. 3
  Block of the inhibitory effect of TNR-EGFL on NG108 cell binding: block

## YTTPPSP (From a phage library that displays random 7-mers)
TNR-EGFL [1]
  n, number of isolated phages displaying the peptide: YTTPPSP (n = 1)
TNR-EGFL [1]; listed as SEQ ID NO. 6
  n, number of isolated phages displaying the peptide: 1

B1: rMAG: coated recombinant MAG (protein, UniProt P20916 20-626, looked up)
Myelin-associated glycoprotein: GHWGAWMPSSISAFEGTCVSIPCRFDFPDELRPAVVHGVWYFNSPYPKNYPPVVFKSRTQVVHESFQGRSRLLGDLGLRNCTLLLSNVSPELGGKYYFRGDLGGYNQYTFSEHSVLDIVNTPNIVVPPEVVAGTEVEVSCMVPDNCPELRPELSWLGHEGLGEPAVLGRLREDEGTWVQVSLLHFVPTREANGHRLGCQASFPNTTLQFEGYASMDVKYPPVIVEMNSSVEAIEGSHVSLLCGADSNPPPLLTWMRDGTVLREAVAESLLLELEEVTPAEDGVYACLAENAYGQDNRTVGLSVMYAPWKPTVNGTMVAVEGETVSILCSTQSNPDPILTIFKEKQILSTVIYESELQLELPAVSPEDDGEYWCVAENQYGQRATAFNLSVEFAPVLLLESHCAAARDTVQCLCVVKSNPEPSVAFELPSRNVTVNESEREFVYSERSGLVLTSILTLRGQAQAPPRVICTARNLYGAKSLELPFQGAHRLMWAKIGPVGAVVAFAILIAIVCYITQTRRKKNVTESPSFSAGDNPPVLFSSDFRISGAPEKYESERRLGSERRLLGLRGEPPELDLSYSHSDLGKRPTKDSYTLTEELAEYAEIRVK
[7]
  Axonal growth cones collapsed: 60%

B2: denatured rMAG: denatured recombinant MAG (protein, UniProt P20916 20-626, looked up)
Myelin-associated glycoprotein: B1 Myelin-associated glycoprotein
modifications: denatured recombinant
notes: denatured recombinant MAG
[7]
  Axonal growth cones collapsed: not observed

B3: Nogol-66: recombinant domain of Nogo (66-residue extracellular domain) used as coated substrate (protein)
chain: T3 sequence (Q9NQC3 1055-1120)
modifications: not fully specified
notes: recombinant domain of Nogo (66-residue extracellular domain) used as coated substrate
NG108 cells [8]
  NG108 cells repelled from coated substrate: repelled significantly
NG108 cells [9]
  Neurite outgrowth of NG108 cells inhibited: inhibited significantly
NG108 cells [10]
  NG108 cell counts adhering to protein spot compared to GST: significantly reduced

B4: GST-Nogo-66: recombinant Nogo-66 domain as fusion protein with GST (protein)
chain: T3 sequence (Q9NQC3 1055-1120)
modifications: also: fused to GST
notes: recombinant Nogo-66 domain as fusion protein with GST
NG108 cells [8]
  NG108 cells repelled from coated substrate: repelled significantly
NG108 cells [9]
  Neurite outgrowth of NG108 cells inhibited: inhibited significantly
NG108 cells [10]
  NG108 cell counts adhering to protein spot compared to GST: significantly reduced
